The source of these data is ChEMBL document CHEMBL1142441, “Stereochemical studies on the novel monoamine oxidase B substrates (1R,6S)- and (1S,6R)-3-methyl-6-phenyl-3-aza-bicyclo[4.1.0]heptane” (Bioorg Med Chem, 2008).

Substrate in data set [1]: [H][C@@]12CN(C)CC[C@]1(c1ccccc1)C2
Briefly: (§1) Activity of 50 nM human recombinant MAOB after 30 mins.

Substrate in data set [2]: [H][C@]12CN(C)CC[C@@]1(c1ccccc1)C2
The data set is described as §1.

B1: Amine oxidase [flavin-containing] B (Homo sapiens) (protein)
chain: MSNKCDVVVVGGGISGMAAAKLLHDSGLNVVVLEARDRVGGRTYTLRNQKVKYVDLGGSYVGPTQNRILRLAKELGLETYKVNEVERLIHHVKGKSYPFRGPFPPVWNPITYLDHNNFWRTMDDMGREIPSDAPWKAPLAEEWDNMTMKELLDKLCWTESAKQLATLFVNLCVTAETHEVSALWFLWYVKQCGGTTRIISTTNGGQERKFVGGSGQVSERIMDLLGDRVKLERPVIYIDQTRENVLVETLNHEMYEAKYVISAIPPTLGMKIHFNPPLPMMRNQMITRVPLGSVIKCIVYYKEPFWRKKDYCGTMIIDGEEAPVAYTLDDTKPEGNYAAIMGFILAHKARKLARLTKEERLKKLCELYAKVLGSLEALEPVHYEEKNWCEEQYSGGCYTTYFPPGILTQYGRVLRQPVDRIYFAGTETATHWSGYMEGAVEAGERAAREILHAMGKIPEDEIWQSEPESVDVPAQPITTTFLERHLPSVPGLLRLIGLTTIFSATALGFLAHKRGLLVRV
As for B1, the Michaelis-Menten constant (Km) in data set [1] and in data set [2] was 221 µM in each case.
